The values below are quoted from earlier work in publication PMC7761795.

In data set [1] the target is UBE2N (Homo sapiens) (UniProt P61088). The experiment in a line: SPR. To be noted: cited from earlier work.
Data set [2] has the same target. Nature of the data set: fluorescence polarization. Particulars: cited from earlier work.

Chain of UBE2N (Homo sapiens) (P61088 whole entry): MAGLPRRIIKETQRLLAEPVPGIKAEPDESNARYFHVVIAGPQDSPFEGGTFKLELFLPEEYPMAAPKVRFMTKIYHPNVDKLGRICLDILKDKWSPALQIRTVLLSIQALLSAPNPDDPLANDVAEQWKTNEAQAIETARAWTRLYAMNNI
Chain of OTUB1 (Q96FW1 2-271): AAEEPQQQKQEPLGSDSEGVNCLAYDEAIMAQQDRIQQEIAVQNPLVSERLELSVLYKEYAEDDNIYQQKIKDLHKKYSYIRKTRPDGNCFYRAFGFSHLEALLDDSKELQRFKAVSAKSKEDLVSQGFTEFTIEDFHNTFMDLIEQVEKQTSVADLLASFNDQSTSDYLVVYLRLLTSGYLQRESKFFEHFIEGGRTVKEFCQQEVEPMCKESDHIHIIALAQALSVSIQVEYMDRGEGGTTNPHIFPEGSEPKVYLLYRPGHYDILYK

For OTUB1 (from UniProt Q96FW1), the Kd (as a rule, the free concentration of one partner at which half of the binding sites on the other are occupied at equilibrium, for simple one-to-one binding) in data set [1] is 8.9 µM; in data set [2] it was 7.04 µM.
